Results: IntAct's records for PubMed 32296183

B1: Transmembrane protein 43 (Homo sapiens), Q9BTV4 (parent)
chain: MAANYSSTSTRREHVKVKTSSQPGFLERLSETSGGMFVGLMAFLLSFYLIFTNEGRALKTATSLAEGLSLVVSPDSIHSVAPENEGRLVHIIGALRTSKLLSDPNYGVHLPAVKLRRHVEMYQWVETEESREYTEDGQVKKETRYSYNTEWRSEIINSKNFDREIGHKNPSAMAVESFMATAPFVQIGRFFLSSGLIDKVDNFKSLSLSKLEDPHVDIIRRGDFFYHSENPKYPEVGDLRVSFSYAGLSGDDPDLGPAHVVTVIARQRGDQLVPFSTKSGDTLLLLHHGDFSAEEVFHRELRSNSMKTWGLRAAGWMAMFMGLNLMTRILYTLVDWFPVFRDLVNIGLKAFAFCVATSLTLLTVAAGWLFYRPLWALLIAGLALVPILVARTRVPAKKLE

Variants of: B1
Settings: with ubp25_human USP25, Q9UHP3
Sequence of ubp25_human USP25, Q9UHP3 (Q9UHP3 whole entry): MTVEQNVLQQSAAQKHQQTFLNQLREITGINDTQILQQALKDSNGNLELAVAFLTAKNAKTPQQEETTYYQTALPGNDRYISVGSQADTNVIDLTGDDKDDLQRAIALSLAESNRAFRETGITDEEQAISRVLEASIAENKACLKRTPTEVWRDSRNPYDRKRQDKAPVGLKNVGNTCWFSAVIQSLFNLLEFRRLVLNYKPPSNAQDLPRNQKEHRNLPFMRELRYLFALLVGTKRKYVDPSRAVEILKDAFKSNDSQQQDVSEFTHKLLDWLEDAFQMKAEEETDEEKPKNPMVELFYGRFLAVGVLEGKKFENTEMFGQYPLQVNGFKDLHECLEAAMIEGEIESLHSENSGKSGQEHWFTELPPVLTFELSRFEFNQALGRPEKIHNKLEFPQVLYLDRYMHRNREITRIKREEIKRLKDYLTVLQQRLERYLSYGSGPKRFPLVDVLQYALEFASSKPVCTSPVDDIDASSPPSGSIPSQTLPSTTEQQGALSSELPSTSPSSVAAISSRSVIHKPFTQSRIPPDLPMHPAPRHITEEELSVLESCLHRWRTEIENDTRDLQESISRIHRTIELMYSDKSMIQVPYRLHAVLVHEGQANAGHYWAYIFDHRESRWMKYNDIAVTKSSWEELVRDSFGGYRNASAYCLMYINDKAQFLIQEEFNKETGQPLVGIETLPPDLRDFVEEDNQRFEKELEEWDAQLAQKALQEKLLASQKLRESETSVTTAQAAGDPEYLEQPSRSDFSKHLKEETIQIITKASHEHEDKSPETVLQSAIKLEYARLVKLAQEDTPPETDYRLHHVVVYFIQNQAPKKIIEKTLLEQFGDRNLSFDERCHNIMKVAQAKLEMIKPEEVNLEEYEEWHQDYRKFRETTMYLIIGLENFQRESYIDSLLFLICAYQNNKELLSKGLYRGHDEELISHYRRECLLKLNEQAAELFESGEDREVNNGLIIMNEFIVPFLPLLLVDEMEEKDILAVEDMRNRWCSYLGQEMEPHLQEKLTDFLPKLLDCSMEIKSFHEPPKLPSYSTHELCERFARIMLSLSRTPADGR

| Variant | effect of a mutation on the interaction |
| --- | --- |
| E142K | with no effect |
| R28W | with no effect |
| I91V | with no effect |
| Y371H | with no effect |

Variants of: B1
Settings: with ar13b_human ARL13B

| Variant | effect of a mutation on the interaction |
| --- | --- |
| E142K | disrupting interaction strength |
| R28W | disrupting interaction strength |
| I91V | with no effect |
| Y371H | with no effect |

Variants of: B1
Settings: with FGA

| Variant | effect of a mutation on the interaction |
| --- | --- |
| E142K | with no effect |
| R28W | with no effect |
| I91V | with no effect |
| Y371H | with no effect |

Variants of: B1
Settings: with PCYT1B

| Variant | effect of a mutation on the interaction |
| --- | --- |
| E142K | with no effect |
| R28W | with no effect |
| I91V | with no effect |
| Y371H | with no effect |

Variants of: B1
Settings: with zch12_human ZCCHC12, Q6PEW1
Sequence of zch12_human ZCCHC12, Q6PEW1 (Q6PEW1 whole entry): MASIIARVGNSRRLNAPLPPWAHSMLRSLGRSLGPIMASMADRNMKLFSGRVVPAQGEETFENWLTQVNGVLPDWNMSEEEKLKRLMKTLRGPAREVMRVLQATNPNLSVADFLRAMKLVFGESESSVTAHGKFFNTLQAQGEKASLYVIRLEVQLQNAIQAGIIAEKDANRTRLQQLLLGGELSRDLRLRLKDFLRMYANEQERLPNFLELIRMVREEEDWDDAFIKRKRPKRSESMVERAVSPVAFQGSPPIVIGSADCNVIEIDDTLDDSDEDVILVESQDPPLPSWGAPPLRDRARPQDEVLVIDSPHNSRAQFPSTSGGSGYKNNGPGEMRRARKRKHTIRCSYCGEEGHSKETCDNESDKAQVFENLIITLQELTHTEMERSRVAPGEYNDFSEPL

| Variant | effect of a mutation on the interaction |
| --- | --- |
| E142K | with no effect |
| R28W | with no effect |
| I91V | with no effect |
| Y371H | with no effect |
